Results as given in patent US8168587B2, “Combination enzyme replacement and small molecule therapy for treatment of lysosomal storage diseases” (Genezyme Corporation, priority 2000, dated 2012).

B1: α-galactosidase A: lysosomal enzyme deficient in Fabry disease, given as a single intravenous infusion for enzyme replacement (protein, UniProt P06280 32-429, looked up)
Alpha-galactosidase A: LDNGLARTPTMGWLHWERFMCNLDCQEEPDSCISEKLFMEMAELMVSEGWKDAGYEYLCIDDCWMAPQRDSEGRLQADPQRFPHGIRQLANYVHSKGLKLGIYADVGNKTCAGFPGSFGYYDIDAQTFADWGVDLLKFDGCYCDSLENLADGYKHMSLALNRTGRSIVYSCEWPLYMWPFQKPNYTEIRQYCNHWRNFADIDDSWKSIKSILDWTSFNQERIVDVAGPGGWNDPDMLVIGNFGLSWNQQVTQMALWAIMAAPLFMSNDLRHISPQAKALLQDKDVIAINQDPLGKQGYQLRQGDNFEVWERPLSGLAWAVAMINRQEIGGPRSYTIAVASLGKGVACNPACFITQLLPVKRKLGFYEWTSRLRSHINPTGTVLLQLENTMQMSLKDLL

System: Fabry mice
Test: Sequential enzyme replacement then small molecule therapy: GB3 re-accumulation in Fabry mouse liver
From the text: In vivo efficacy of combination enzyme replacement therapy plus small molecule therapy in Fabry disease. […] Study protocol for sequential combination of enzyme (α-galactosidase A) replacement followed by small molecule administration (NB-DNJ, AMP-DNJ or D-t-et-P4) on globotriaosylceramide (GB3) re-accumulation in Fabry mice. […] Results of study protocol for Fabry mouse liver tissue. GB3 re-accumulation at four weeks (μg GB3 per gm liver tissue) is plotted on the ordinate versus absence of small molecule treatment (Vehicle) or daily intra-peritoneal small molecule therapy with D-t-et-P4 (at either 5 mg/kg or 0.5 mg/kg), NB-DNJ (at 500 mg/kg), or AMP-DNJ (at 100 mg/kg).
Fabry mice were used to test the in vivo efficacy of combining enzyme replacement therapy with small molecule therapy in a sequential treatment format (FIG. 1). The study was designed to evaluate whether substrate inhibition (i.e. “substrate deprivation therapy”) using small molecules of the DNJ and P4 types could reduce re-accumulation of the storage material globotriaosylceramide (GB3). The study protocol (FIG. 1A) called for a single infusion of α-galactosidase A enzyme to reduce GB3 levels (measured at two weeks) to a “Baseline” level in Fabry mouse liver. GB3 re-accumulation was then measured at four weeks in control mice receiving no small molecule therapy (“Vehicle”) and in mice receiving various small molecules at various doses. Accordingly, two weeks after GB3 levels were reduced to a “Baseline” level of about 0.1 μg/g liver (FIG. 1B), a small molecule or vehicle was administered by intra-peritoneal (IP) injection.

| Molecule | GB3 re-accumulation in Fabry mouse liver tissue (5 mg/kg daily IP after single α-galactosidase A infusion, four week time point, vehicle about 0.8, baseline about 0.1) | Baseline GB3 level in Fabry mouse liver (two weeks after a single infusion of α-galactosidase A enzyme) | Baseline GB3 level in Fabry mouse liver (two weeks after a single α-galactosidase A intravenous infusion) |
| --- | --- | --- | --- |
| D-threo-1-(3′,4′-ethylenedioxy)phenyl-2-palmitoylamino-3-pyrrolidino-1-propanol [D-t-et-P4, reference compound] | less than 0.4 μg/gm | – | – |
| B1 | – | about 0.1 μg/g liver | about 0.1 μg/gm liver tissue |
